The test system of the data set is guinea pigs. As to the kind of experiment: Systematically allergic reaction in guinea pigs (Example 23). In kind it is in vivo, guinea pig. The following applies: albumin 240 mg/kg via toe vein. From the text: 44 male healthy guinea pigs were provided, and the body weight of each guinea pig was about 300 g.

B1: chicken ovalbumin (protein, UniProt P01012 2-386, looked up)
Ovalbumin: GSIGAASMEFCFDVFKELKVHHANENIFYCPIAIMSALAMVYLGAKDSTRTQINKVVRFDKLPGFGDSIEAQCGTSVNVHSSLRDILNQITKPNDVYSFSLASRLYAEERYPILPEYLQCVKELYRGGLEPINFQTAADQARELINSWVESQTNGIIRNVLQPSSVDSQTAMVLVNAIVFKGLWEKAFKDEDTQAMPFRVTEQESKPVQMMYQIGLFRVASMASEKMKILELPFASGTMSMLVLLPDEVSGLEQLESIINFEKLTEWTSSNVMEERKIKVYLPRMKMEEKYNLTSVLMAMGITDVFSSSANLSGISSAESLKISQAVHAAHAEINEAGREVVGSAEAGVDAASVSEEFRADHPFLFCIKHIATNAVLFFGRCVSP
notes: chicken ovalbumin, albumin group in the guinea pig allergy test
For the molecule B1, the “time to death after stimulation” value is < 2 min.

For the origin of these results see US8575097B2, “Exendin variant and conjugate thereof” (Pegbio Co., Ltd., priority 2009, dated 2013).
